Test results taken from IntAct's records for PubMed 25910212.

B1: Alpha-crystallin B chain (Homo sapiens), P02511 (parent)
chain: MDIAIHHPWIRRPFFPFHSPSRLFDQFFGEHLLESDLFPTSTSLSPFYLRPPSFLRAPSWFDTGLSEMRLEKDRFSVNLDVKHFSPEELKVKVLGDVIEVHGKHEERQDEHGFISREFHRKYRIPADVDPLTITSSLSSDGVLTVNGPRKQVSGPERTIPITREEKPAVTAAPKK
partner: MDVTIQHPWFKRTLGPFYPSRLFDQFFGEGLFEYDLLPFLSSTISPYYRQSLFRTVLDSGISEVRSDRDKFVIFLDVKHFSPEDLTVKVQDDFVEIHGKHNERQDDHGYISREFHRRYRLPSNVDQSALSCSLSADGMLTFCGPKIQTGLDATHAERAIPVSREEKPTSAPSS
B2: EF-hand domain-containing protein 1 (Homo sapiens), Q5JVL4 (parent)
chain: MVSNPVHGLPFLPGTSFKDSTKTAFHRSQTLSYRNGYAIVRRPTVGIGGDRLQFNQLSQAELDELASKAPVLTYGQPKQAPPADFIPAHVAFDKKVLKFDAYFQEDVPMSTEEQYRIRQVNIYYYLEDDSMSVIEPVVENSGILQGKLIKRQRLAKNDRGDHYHWKDLNRGINITIYGKTFRVVDCDQFTQVFLESQGIELNPPEKMALDPYTELRKQPLRKYVTPSDFDQLKQFLTFDKQVLRFYAIWDDTDSMYGECRTYIIHYYLMDDTVEIREVHERNDGRDPFPLLMNRQRVPKVLVENAKNFPQCVLEISDQEVLEWYTAKDFIVGKSLTILGRTFFIYDCDPFTRRYYKEKFGITDLPRIDVSKREPPPVKQELPPYNGFGLVEDSAQNCFALIPKAPKKDVIKMLVNDNKVLRYLAVLESPIPEDKDRRFVFSYFLATDMISIFEPPVRNSGIIGGKYLGRTKVVKPYSTVDNPVYYGPSDFFIGAVIEVFGHRFIILDTDEYVLKYMESNAAQYSPEALASIQNHVRKREAPAPEAESKQTEKDPGVQELEALIDTIQKQLKDHSCKDNIREAFQIYDKEASGYVDRDMFFKICESLNVPVDDSLVKELIRMCSHGEGKINYYNFVRAFSN
partner: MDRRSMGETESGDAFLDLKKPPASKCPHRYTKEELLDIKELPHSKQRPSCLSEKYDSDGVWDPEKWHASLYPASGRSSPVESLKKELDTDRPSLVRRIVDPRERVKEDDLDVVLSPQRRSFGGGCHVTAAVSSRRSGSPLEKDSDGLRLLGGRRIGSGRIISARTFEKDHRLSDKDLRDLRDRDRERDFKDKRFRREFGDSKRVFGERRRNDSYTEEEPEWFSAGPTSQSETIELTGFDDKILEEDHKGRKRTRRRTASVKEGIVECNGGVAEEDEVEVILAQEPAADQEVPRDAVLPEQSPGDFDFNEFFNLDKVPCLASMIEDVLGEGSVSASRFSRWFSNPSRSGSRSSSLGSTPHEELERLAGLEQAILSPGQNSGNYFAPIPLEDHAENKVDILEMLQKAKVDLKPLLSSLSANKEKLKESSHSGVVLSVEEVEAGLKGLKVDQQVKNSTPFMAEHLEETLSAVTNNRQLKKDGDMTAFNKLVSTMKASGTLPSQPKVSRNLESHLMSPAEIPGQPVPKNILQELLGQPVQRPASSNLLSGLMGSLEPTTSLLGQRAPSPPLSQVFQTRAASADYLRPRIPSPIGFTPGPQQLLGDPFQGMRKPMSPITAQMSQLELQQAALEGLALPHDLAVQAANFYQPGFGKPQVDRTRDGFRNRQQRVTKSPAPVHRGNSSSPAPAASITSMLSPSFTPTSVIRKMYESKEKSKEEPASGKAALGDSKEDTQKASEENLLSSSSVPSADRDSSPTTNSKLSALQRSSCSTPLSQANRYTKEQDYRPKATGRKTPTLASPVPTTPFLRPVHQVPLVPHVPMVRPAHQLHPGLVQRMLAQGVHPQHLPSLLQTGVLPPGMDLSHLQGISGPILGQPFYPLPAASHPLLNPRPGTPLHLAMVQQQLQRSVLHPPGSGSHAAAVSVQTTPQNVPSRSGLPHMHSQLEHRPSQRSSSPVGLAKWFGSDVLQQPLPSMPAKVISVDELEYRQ
B3: DNA mismatch repair protein Mlh1 (Homo sapiens), P40692 (parent)
chain: MSFVAGVIRRLDETVVNRIAAGEVIQRPANAIKEMIENCLDAKSTSIQVIVKEGGLKLIQIQDNGTGIRKEDLDIVCERFTTSKLQSFEDLASISTYGFRGEALASISHVAHVTITTKTADGKCAYRASYSDGKLKAPPKPCAGNQGTQITVEDLFYNIATRRKALKNPSEEYGKILEVVGRYSVHNAGISFSVKKQGETVADVRTLPNASTVDNIRSIFGNAVSRELIEIGCEDKTLAFKMNGYISNANYSVKKCIFLLFINHRLVESTSLRKAIETVYAAYLPKNTHPFLYLSLEISPQNVDVNVHPTKHEVHFLHEESILERVQQHIESKLLGSNSSRMYFTQTLLPGLAGPSGEMVKSTTSLTSSSTSGSSDKVYAHQMVRTDSREQKLDAFLQPLSKPLSSQPQAIVTEDKTDISSGRARQQDEEMLELPAPAEVAAKNQSLEGDTTKGTSEMSEKRGPTSSNPRKRHREDSDVEMVEDDSRKEMTAACTPRRRIINLTSVLSLQEEINEQGHEVLREMLHNHSFVGCVNPQWALAQHQTKLYLLNTTKLSEELFYQILIYDFANFGVLRLSEPAPLFDLAMLALDSPESGWTEEDGPKEGLAEYIVEFLKKKAEMLADYFSLEIDEEGNLIGLPLLIDNYVPPLEGLPIFILRLATEVNWDEEKECFESLSKECAMFYSIRKQYISEESTLSGQQSEVPGSIPNSWKWTVEHIVYKALRSHILPPKHFTEDGNILQLANLPDLYKVFERC
partner: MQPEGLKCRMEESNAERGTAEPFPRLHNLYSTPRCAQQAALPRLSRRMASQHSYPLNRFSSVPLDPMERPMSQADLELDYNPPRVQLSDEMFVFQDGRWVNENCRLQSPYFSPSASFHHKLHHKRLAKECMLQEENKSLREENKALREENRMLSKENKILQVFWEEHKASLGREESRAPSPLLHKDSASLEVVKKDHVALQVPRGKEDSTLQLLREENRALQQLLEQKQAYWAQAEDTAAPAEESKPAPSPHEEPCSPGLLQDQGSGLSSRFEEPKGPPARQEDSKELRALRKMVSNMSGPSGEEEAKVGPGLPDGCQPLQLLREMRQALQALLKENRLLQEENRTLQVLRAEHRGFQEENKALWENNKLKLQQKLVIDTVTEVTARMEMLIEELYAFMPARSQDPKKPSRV

Variants of: B1
Settings: with cryaa_human CRYAA

effect of a mutation on the interaction	Variant
with no effect	R56W
with no effect	R120G
with no effect	D140N

Variants of: B2
Settings: with 4et_human EIF4ENIF1, Q9NRA8

Variant	effect of a mutation on the interaction
P77T	disrupting interaction strength
R159W	with no effect

The next lines start with the values.

effect of a mutation on the interaction	Variant
with no effect	M448T
disrupting interaction strength	A394S
disrupting interaction strength	T508R
disrupting interaction strength	R221H

Variants of: B3
Settings: with CBY2, Q8NA61-2

effect of a mutation on the interaction	Variant
with no effect	G244D
